Measurements as given in patent US20090163698A1 (published 2009).

Molecular target: murine αVβ3/5 integrin (murine, UniProt P43406 31-1044)
Assay: cell-based or functional assay

Sequence of murine αVβ3/5 integrin (P43406 31-1044): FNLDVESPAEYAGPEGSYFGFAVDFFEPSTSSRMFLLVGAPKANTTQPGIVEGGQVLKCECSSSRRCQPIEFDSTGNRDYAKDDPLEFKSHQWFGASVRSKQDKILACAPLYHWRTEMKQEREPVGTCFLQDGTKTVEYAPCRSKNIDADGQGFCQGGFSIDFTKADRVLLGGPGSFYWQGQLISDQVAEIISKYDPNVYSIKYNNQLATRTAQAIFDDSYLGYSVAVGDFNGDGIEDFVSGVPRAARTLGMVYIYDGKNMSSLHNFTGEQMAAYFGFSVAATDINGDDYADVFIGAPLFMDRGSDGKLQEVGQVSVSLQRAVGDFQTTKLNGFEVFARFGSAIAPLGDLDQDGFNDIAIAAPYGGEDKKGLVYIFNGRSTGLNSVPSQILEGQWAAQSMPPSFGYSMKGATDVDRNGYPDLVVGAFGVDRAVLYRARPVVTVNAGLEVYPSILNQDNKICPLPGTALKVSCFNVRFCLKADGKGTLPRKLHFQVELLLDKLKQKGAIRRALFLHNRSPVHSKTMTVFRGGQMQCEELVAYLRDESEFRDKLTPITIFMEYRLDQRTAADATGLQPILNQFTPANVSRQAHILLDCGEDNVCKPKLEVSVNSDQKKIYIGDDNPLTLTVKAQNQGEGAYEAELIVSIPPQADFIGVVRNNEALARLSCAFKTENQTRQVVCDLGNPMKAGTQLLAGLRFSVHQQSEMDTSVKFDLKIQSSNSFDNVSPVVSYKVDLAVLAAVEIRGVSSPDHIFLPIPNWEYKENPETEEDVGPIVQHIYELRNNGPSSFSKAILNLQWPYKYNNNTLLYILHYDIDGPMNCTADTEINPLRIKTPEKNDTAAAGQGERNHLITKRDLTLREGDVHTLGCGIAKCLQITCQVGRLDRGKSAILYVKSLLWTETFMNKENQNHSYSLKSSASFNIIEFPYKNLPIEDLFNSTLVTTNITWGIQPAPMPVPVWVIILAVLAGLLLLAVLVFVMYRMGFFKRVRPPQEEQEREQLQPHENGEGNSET

B1: CNTO 95 Fab′ (anti-alpha-V Fab′ made by pepsin cleavage of the parent antibody, reduction and reoxidation), conjugated to MalPEG-DSPE on the surface of … (Fab, V domains shown)
VH: QVQLVESGGGVVQPGRSRRLSCAASGFTFSRYTMHWVRQAPGKGLEWVAVISFDGSNKYYVDSVKGRFTISRDNSENTLYLQVNILRAEDTAVYYCAREARGSYAFDIWGQGTMVTVSS
VL: EIVLTQSPATLSLSPGERATLSCRASQSVSSYLAWYQQKPGQAPRLLIYDASNRATGIPARFSGSGSGTDFTLTISSLEPEDFAVYYCQQRSNWPPFTFGPGTKVDIKR
modifications: free sulfhydryl near the C-terminus conjugated to maleimide-PEG-DSPE inserted in the liposome
Increase (ratio of IC50 of liposome-entrapped doxorubicin to IC50 of 90:1 targeted liposomes), B16-F10 cells: 1 fold
